Biological target: T1, CD24 (human, UniProt P25063 27-59)
T1 construct: whole, on cells; For MCF-7 and REH cells it says only CD24+; also called human CD24; hCD24
T1 chain (looked up): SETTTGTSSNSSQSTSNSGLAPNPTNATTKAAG
Test: flow cytometry on CD24+ MCF-7 cells, FITC anti-human IgG-Fc secondary
Procedure: CD24⁺ MCF-7 cells in 100 μl culture medium at a cell density of 1×10⁶/ml were incubated with 100 μl serially diluted IMM47H and hIgG-Fc (3-fold dilution, starting at 30 μg/ml), respectively, at 4° C. for 1 h. Cells were washed with cold PBS twice, and then incubated with 100 μl FITC-conjugated secondary antibody against human IgG-Fc (Cat #F9512, Sigma) for 45 min. Cells were washed twice and re-suspended in 200 μl PBS. Then, the cells were subject to FACS analysis using a flow cytometer (Merck Millipore, Guava® easyCyte 5HT).

B1: IMM47H (antibody, human IgG1, kappa, V domains shown)
VH: DVQLQESGPGLVKPSETLSLTCTVSGYSITSGYSWHWIRQPPGKGLEWIGYIHYSGSTKYNPSLKSRVTISVDTSKNQFSLKLSSVTAADTAVYYCARGADYALDYWGQRTSVTVSS
VL: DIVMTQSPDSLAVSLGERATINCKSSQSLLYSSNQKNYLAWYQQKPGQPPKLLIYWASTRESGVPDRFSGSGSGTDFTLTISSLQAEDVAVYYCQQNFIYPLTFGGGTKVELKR
notes: also called humanized anti-CD24 antibody
binding result: binds

Source: patent US20230110607A1 (IMMUNEONCO BIOPHARMACEUTICALS SHANGHAI, published 2023)
